Among the data in patent US20240409635A1 are absorbance ratio to PBS blank values, retold here.

This experiment concerns the target keyhole limpet haemocyanin. Nature of the experiment: ELISA, KLH coated, 100 nM antibody. (An ELISA detects its analyte on a solid surface through an enzyme-linked reagent.)

As for Ofatumumab (antibody), the absorbance ratio to PBS blank was determined as 1.15.

Consider Adalimumab (antibody), for which the absorbance ratio to PBS blank came out at 1.03.
